Experiment in all cases: EMSA
Data set [1] has as its target DmcElp3 K2A K3A (Dehalococcoides mccartyi, UniProt A0A1C7D1B7 1-459, K2A;K3A).
The target of data set [2] is DmcElp3 wild type (dimer) (Dehalococcoides mccartyi, UniProt A0A1C7D1B7 1-459).
Data set [3] deals with DmcElp3 9-459 (Dehalococcoides mccartyi, UniProt A0A1C7D1B7 9-459).
Data set [4] concerns the target DmcElp3 wild type (monomer) (Dehalococcoides mccartyi, UniProt A0A1C7D1B7 1-459).
In data set [5] the target is DmcElp3 R6A (Dehalococcoides mccartyi, UniProt A0A1C7D1B7 1-459, R6A).

B1: D. mccartyi tRNAGlu-1 (UUC) (structured_RNA)
RNA: GCCCCCAUCGUCUAGAGGCCCAGGACAGCGGCCUUUCACGCCGUCAACAGGGGUUCGAAUCCCCUUGGGGGUACCA
By Kd is commonly meant a measure of binding affinity in units of concentration. Lower therefore signals tighter binding. As for B1, the binding result in data set [1], in data set [3] and in data set [5] was “no binding” each time. Also, the Kd in data set [2] and in data set [4] was roughly 4 µM throughout.

The record behind these values is paper PMC5018218.
